Data reported in paper PMC3852207.

Assays:
Q61L Cdc42·[3H]GTP = Q61L Cdc42·[3H]GTP (UniProt P60953); test: scintillation proximity assay (competition); competitor titrated into 30 nM [3H]GTP·Rac1 or [3H]GTP·Cdc42 and 30 nM GST-p50 RhoGAP immobilised on fluoromicrospheres via an anti-GST antibody; partial competition model for RLIP76 GAP and didomain, full competition for GAP insert and free p50 RhoGAP
Q61L Rac1·[3H]GTP = Q61L Rac1·[3H]GTP (UniProt P63000); test: as above
GST-p50 RhoGAP = test: scintillation proximity assay (direct); GST-p50 RhoGAP on SPA beads; [3H]GTP·Cdc42 or [3H]GTP·Rac1 in solution; values used as fixed Kd in the competition fits
Rac1 (Homo sapiens) = Rac1 (Homo sapiens) (UniProt P63000); settings: cited from earlier work
Cdc42 (Homo sapiens) = Cdc42 (Homo sapiens) (UniProt P60953); settings: cited from earlier work
Chain of Cdc42 (Homo sapiens) (P60953 1-188): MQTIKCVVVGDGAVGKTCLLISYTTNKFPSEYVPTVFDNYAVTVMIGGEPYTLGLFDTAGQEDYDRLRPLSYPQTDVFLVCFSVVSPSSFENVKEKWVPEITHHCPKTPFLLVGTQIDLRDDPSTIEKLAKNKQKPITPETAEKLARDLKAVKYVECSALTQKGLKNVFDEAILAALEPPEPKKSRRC

Chain of Q61L Cdc42·[3H]GTP (P60953 whole entry Q61L): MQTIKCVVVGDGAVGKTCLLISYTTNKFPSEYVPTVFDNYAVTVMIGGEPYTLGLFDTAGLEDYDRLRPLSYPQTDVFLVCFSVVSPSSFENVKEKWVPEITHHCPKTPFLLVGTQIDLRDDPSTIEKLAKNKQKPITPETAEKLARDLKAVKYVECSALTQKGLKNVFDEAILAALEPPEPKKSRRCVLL

Substance	Kd (Q61L Cdc42·[3H]GTP) [nM]	Kd (Q61L Rac1·[3H]GTP) [nM]	Kd (GST-p50 RhoGAP) [nM]	Kd (Rac1 (Homo sapiens)) [nM]	Kd (Cdc42 (Homo sapiens)) [nM]
His-RLIP76 GAP-GBD didomain (residues 184-446) (from UniProt Q15311 184-446) (domain or fragment)	5590	2340	–	–	–
p50 RhoGAP (from UniProt Q07960)	–	–	–	18	24

Further lines, with some results ahead:

Kd (Q61L Cdc42·[3H]GTP) [nM]	Kd (Q61L Rac1·[3H]GTP) [nM]	Kd (GST-p50 RhoGAP) [nM]	Substance	Kd (Rac1 (Homo sapiens)) [nM]	Kd (Cdc42 (Homo sapiens)) [nM]
6190	1680	–	His-RLIP76 GAP domain (residues 184-380) (from UniProt Q15311 184-380) (domain or fragment)	–	–
–	–	80	Q61L Cdc42·[3H]GTP (from UniProt P60953 1-191) (natural protein)	–	–
247	150	–	untagged p50 RhoGAP (domain or fragment)	–	–
